According to PMC8248410 (Chemmedchem, 2021):
The star is where a group is joined. Biotin = O=C1N[C@H]2[C@H](CS[C@H]2CCCCC(=O)*)N1; Ahx = NCCCCCC(=O)O

B1: P6‐2(Bio) (peptide)
peptide: {Biotin-Ahx}-LCDCPNGPWVWVPAFCQAVG-OH
modifications: cysteine pairing not given here
B2: P6‐2 (peptide)
peptide: Ac-LCDCPNGPWVWVPAFCQAVG-OH
modifications: cysteine pairing not given here

Target: gp120_(HxBc2) (HIV-1 (HxBc2), UniProt P04578 33-511)
Experiment: cell-based or functional assay

| Binder | IC50 of inhibition of HIV-1 NL4-3 infection of CEMx174 SEAP reporter cells |
| --- | --- |
| B1 | 1.24 µM |
| B2 | 2.63 µM |
